Data: publication PMC5526109

Molecular target: MAdCAM-1 (mucosal addressin cell adhesion molecule-1) (UniProt Q13477)
Assay: cell adhesion assay

UniProt Q13477, sequence (Q13477 19-382): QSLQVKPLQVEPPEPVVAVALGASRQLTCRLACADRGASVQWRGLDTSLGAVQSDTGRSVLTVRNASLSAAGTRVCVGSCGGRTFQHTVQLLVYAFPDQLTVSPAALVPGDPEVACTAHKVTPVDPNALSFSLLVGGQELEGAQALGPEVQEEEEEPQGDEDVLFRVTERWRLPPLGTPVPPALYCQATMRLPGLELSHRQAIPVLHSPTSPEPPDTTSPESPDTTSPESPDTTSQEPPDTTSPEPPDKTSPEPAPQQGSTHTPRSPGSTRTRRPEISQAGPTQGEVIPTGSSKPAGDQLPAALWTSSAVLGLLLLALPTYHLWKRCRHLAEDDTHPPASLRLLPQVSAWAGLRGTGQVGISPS

Work on “α4β7 integrin (from UniProt P13612 34-1032; P26010 20-798) (receptor)” yielded a relative light units of bound cells (~7.5 pmol MAdCAM-1 coated) of 1e+06 RLU.
